Reference: patent US20150087552A1

How the values were obtained:
[1] = target: Kv2.1 "wild-type" base construct hKv2.1-m7-c3 (human Kv2.1, residues 1-858, mutated to confer AgTx2 (human) (UniProt Q14721)); test: cell-based or functional assay
[2] = target: Kv2.1 R300S (on the hKv2.1-m7-c3 base construct) (human) (UniProt Q14721); test: cell-based or functional assay

Sequence of AgTx2 (Agitotoxin-2 / agitoxin 2, scorpion toxin) (P46111 whole entry): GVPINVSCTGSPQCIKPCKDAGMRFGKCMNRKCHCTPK

AgTx2 (Agitotoxin-2 / agitoxin 2, scorpion toxin) (from UniProt P46111 1-38) (peptide)
mean inhibition of the maximal outward (alpha pore) current at +60 mV by 1 nM AgTx2, two-electrode voltage clamp, Xenopus oocytes [1]: 66.5% | mean inhibition of the maximal outward (alpha pore) current at +60 mV by 1 nM AgTx2, two-electrode voltage clamp, Xenopus oocytes [2]: 67.8%
